Results as given in the supplement of paper PMC10065799, “High-throughput profiling of sequence recognition by tyrosine kinases and SH2 domains using bacterial peptide display” (eLife, 2023).

Key:
[1] = test system: AncSZ; assay: phosphorylation enrichment, bacterial display (enrichment ratio); higher = better substrate or ligand; peptides without Tyr show the background
[2] = molecular target: EPHB1 (UniProt P54762); assay: as above
[3] = molecular target: EPHB2 (UniProt P29323); assay: as above
[4] = molecular target: FGFR1 (UniProt P11362); assay: as above
[5] = molecular target: FGFR3 (UniProt P22607); assay: as above
[6] = test system: Fer (mouse); assay: as above
[7] = molecular target: Fes (UniProt P07332); assay: as above
[8] = molecular target: Fyn (UniProt P06241); assay: as above
[9] = molecular target: Hck (UniProt P08631); assay: as above
[10] = molecular target: Jak2 (UniProt O60674); assay: as above
[11] = molecular target: MERTK (UniProt Q12866); assay: as above
[12] = test system: c-Abl (mouse); assay: as above
[13] = test system: c-Src; assay: as above
[14] = molecular target: Grb2 SH2 (UniProt P62993); assay: SH2 binding enrichment of the phosphorylated peptide, bacterial display (enrichment ratio); higher = better substrate or ligand; peptides without Tyr show the background
[15] = molecular target: SHP2-C SH2; assay: as above
[16] = molecular target: c-Src SH2; assay: as above
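For SH2 binding enrichment of the phosphorylated peptide, bacterial display in this document: peptide library displayed on the E. coli surface as eCPX fusions, selected cells deep-sequenced, score is each peptide's frequency after selection divided by its frequency in the input.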
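For phosphorylation enrichment, bacterial display in this document: 11-residue human phosphosite peptides and single-mutation variants displayed on the E. coli surface, counted by deep sequencing, each peptide's frequency after selection divided by its frequency in the unselected input library; frequency after pTyr selection over input frequency; kinase dosed for 20-30% of maximal phosphorylation in three min.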

Hck, sequence (P08631 whole entry, looked up): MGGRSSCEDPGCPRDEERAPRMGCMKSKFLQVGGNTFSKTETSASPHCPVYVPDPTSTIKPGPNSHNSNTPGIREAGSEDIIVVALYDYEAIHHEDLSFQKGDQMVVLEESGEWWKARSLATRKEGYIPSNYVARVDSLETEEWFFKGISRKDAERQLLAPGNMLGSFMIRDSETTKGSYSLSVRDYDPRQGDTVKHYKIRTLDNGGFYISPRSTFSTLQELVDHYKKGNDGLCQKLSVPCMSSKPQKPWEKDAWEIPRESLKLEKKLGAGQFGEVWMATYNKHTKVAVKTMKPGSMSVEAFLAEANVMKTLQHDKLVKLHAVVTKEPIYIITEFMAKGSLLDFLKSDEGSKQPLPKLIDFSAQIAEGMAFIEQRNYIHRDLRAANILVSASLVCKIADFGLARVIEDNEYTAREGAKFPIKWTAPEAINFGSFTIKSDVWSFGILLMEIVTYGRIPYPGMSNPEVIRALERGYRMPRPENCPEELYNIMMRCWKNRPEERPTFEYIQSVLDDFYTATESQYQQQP
FGFR3, sequence (P22607 whole entry, looked up): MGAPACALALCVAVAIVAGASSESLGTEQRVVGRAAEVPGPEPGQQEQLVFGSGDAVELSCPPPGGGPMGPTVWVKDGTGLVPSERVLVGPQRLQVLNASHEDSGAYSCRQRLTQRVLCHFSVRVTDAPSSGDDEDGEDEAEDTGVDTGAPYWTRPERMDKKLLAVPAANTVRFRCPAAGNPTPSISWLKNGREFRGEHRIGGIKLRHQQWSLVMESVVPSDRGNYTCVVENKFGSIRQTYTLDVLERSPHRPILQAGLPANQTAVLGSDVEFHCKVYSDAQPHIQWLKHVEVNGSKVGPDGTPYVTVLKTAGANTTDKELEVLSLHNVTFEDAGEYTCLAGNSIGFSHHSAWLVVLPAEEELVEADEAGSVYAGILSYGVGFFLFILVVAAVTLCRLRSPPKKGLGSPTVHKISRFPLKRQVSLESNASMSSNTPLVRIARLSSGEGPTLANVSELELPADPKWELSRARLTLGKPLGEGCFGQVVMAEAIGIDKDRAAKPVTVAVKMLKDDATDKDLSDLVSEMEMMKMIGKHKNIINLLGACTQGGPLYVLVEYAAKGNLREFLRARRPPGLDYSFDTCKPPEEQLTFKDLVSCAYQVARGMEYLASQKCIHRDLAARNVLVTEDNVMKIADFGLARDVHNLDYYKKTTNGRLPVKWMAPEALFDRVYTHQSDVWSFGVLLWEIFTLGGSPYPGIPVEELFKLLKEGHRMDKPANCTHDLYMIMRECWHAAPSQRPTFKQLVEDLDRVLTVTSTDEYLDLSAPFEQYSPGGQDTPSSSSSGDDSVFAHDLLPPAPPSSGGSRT
MERTK, sequence (Q12866 whole entry, looked up): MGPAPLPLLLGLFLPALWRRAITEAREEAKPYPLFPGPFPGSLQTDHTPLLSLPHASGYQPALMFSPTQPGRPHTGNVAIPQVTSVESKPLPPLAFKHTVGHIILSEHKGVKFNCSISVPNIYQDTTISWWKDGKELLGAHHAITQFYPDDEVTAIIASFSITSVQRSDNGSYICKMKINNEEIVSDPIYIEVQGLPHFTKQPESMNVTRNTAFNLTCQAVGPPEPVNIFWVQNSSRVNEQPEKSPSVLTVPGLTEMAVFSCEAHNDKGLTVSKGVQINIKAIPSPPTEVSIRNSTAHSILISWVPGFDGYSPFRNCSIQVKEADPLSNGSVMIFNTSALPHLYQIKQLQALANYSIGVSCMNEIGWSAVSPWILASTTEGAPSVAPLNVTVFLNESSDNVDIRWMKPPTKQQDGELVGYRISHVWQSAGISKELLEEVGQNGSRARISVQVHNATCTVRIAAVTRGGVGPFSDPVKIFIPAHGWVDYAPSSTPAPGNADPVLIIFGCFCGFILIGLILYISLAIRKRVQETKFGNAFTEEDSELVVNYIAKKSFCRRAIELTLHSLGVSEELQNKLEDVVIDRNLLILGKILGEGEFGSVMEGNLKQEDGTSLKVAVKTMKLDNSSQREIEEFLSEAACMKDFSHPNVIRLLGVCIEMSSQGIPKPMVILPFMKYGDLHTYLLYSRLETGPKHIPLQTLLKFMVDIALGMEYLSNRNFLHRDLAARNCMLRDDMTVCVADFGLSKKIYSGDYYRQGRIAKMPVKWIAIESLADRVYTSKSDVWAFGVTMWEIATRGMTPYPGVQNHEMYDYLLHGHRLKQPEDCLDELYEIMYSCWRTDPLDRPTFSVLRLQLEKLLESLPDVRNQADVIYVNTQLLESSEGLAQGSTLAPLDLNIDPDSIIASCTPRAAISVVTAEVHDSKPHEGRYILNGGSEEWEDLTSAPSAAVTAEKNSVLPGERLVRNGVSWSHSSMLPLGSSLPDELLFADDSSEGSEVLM
EPHB1, sequence (P54762 whole entry, looked up): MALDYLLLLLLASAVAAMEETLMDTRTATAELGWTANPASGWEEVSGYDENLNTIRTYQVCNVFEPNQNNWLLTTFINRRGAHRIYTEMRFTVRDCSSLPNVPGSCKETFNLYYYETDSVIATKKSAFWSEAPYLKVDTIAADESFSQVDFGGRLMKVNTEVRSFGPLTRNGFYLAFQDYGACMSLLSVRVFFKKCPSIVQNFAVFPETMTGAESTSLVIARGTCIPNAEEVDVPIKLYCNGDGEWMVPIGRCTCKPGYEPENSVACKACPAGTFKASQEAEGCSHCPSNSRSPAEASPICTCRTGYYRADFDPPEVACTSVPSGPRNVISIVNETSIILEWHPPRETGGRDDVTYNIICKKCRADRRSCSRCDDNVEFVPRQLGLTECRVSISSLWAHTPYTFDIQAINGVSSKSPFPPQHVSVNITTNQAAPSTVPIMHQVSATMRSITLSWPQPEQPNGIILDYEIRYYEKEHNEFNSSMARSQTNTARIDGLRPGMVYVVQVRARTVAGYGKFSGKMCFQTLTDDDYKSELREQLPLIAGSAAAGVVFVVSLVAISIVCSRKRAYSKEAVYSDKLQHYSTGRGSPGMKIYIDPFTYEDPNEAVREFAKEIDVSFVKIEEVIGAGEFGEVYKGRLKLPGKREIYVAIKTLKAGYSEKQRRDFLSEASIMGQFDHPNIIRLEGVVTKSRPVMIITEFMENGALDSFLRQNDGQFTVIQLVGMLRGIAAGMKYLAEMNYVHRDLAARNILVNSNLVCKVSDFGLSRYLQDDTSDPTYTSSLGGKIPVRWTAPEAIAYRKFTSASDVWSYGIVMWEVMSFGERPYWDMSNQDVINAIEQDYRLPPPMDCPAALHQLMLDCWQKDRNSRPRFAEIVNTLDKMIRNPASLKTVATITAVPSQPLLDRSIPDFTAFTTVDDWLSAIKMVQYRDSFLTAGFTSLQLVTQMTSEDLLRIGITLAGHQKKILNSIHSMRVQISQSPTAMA
Fyn, sequence (P06241 whole entry, looked up): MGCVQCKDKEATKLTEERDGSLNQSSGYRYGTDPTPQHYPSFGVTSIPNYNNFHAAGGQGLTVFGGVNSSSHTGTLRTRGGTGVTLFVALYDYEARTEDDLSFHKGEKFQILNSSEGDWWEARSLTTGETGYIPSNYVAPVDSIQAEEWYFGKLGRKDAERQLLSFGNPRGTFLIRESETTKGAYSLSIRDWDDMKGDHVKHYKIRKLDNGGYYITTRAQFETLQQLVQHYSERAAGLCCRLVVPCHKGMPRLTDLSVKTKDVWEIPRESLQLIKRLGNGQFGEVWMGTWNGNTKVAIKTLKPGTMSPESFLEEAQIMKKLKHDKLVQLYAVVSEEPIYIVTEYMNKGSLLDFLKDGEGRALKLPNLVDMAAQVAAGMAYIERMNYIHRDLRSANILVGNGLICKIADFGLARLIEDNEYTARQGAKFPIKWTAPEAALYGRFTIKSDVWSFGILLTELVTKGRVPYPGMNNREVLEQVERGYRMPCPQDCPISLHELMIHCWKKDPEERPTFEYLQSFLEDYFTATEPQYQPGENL
Fes, sequence (P07332 whole entry, looked up): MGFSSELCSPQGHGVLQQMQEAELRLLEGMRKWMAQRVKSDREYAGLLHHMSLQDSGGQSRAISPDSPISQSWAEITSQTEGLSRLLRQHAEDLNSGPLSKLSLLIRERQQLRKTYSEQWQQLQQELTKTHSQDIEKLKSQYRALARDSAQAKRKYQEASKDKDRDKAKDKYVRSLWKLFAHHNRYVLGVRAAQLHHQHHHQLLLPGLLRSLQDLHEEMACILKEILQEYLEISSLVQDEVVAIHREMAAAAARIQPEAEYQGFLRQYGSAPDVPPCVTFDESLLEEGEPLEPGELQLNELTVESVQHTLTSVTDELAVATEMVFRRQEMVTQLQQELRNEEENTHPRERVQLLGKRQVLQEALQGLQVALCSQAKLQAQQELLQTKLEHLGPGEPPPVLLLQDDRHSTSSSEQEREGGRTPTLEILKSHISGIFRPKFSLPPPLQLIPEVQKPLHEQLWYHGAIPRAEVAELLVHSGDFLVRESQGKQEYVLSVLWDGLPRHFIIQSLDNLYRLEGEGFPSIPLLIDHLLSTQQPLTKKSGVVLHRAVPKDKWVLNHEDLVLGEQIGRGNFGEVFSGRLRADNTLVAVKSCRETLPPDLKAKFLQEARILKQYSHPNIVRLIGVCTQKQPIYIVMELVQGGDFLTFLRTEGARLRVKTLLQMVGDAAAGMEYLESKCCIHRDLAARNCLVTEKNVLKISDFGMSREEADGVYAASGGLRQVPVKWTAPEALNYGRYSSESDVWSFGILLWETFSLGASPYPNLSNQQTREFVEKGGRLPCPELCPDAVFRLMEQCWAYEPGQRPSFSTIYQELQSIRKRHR

| SH2 binding enrichment [14] | SH2 binding enrichment [15] | SH2 binding enrichment [16] | Sequence | phosphorylation enrichment [1] | phosphorylation enrichment [2] | phosphorylation enrichment [3] | phosphorylation enrichment [4] | phosphorylation enrichment [5] | phosphorylation enrichment [6] | phosphorylation enrichment [7] | phosphorylation enrichment [8] | phosphorylation enrichment [9] | phosphorylation enrichment [10] | phosphorylation enrichment [11] | phosphorylation enrichment [12] | phosphorylation enrichment [13] |
| --- | --- | --- | --- | --- | --- | --- | --- | --- | --- | --- | --- | --- | --- | --- | --- | --- |
| 0.827 | 1.67 | 1.26 | ATDLAYFLVRE [ASL_Y375_K380E_YF] | 1.54 | 1.02 | 0.953 | 4.9 | 3.95 | 0.797 | 1.51 | 0.809 | 0.782 | 2.29 | 0.694 | 0.939 | 0.783 |
| 0.948 | 0.906 | 0.645 | KVASVYEAPGF [NT5C_Y65] | 0.973 | 3.77 | 5.62 | 0.481 | 0.583 | 6.87 | 0.903 | 7.05 | 9.28 | 0.609 | 2.59 | 9.41 | 5.05 |
| 0.878 | 0.665 | 0.627 | ATPKGYELDAS [OTC_Y223_P225L] | 0.966 | 0.442 | 0.551 | 0.466 | 0.557 | 0.465 | 0.903 | 0.478 | 0.442 | 1 | 0.491 | 0.697 | 0.405 |
| 1.35 | 1.57 | 1.74 | KWRGQYDVAIR [BTK_Y425_K430R] | 0.96 | 0.498 | 0.454 | 0.426 | 0.533 | 0.512 | 0.698 | 0.446 | 0.451 | 0.461 | 0.341 | 0.539 | 0.389 |
| 0.695 | 0.675 | 0.414 | LICRRYLVMQR [IL3RA_Y328_V323L] | 2.5 | 0.827 | 1.72 | 0.926 | 0.834 | 0.956 | 2.01 | 0.564 | 0.729 | 2.35 | 1.01 | 1.22 | 1.01 |
| 1.31 | 1.28 | 0.91 | YQQLFYLLQIN [IQGAP2_Y890_T894I] | 1.57 | 1.21 | 0.829 | 2.23 | 2.15 | 0.751 | 1.81 | 0.625 | 0.911 | 1.67 | 1.31 | 1.3 | 1 |
| 0.783 | 0.844 | 0.653 | FLTLHYDAKPQ [ANG_Y38_Q36L] | 0.912 | 0.505 | 0.426 | 0.532 | 0.575 | 0.328 | 0.983 | 0.449 | 0.462 | 0.669 | 0.301 | 0.501 | 0.312 |
| 1.29 | 1.54 | 1.07 | QLYGPYLRIHA [BSCL2_Y213_A212P] | 0.87 | 0.897 | 2.03 | 0.344 | 0.73 | 0.596 | 1.12 | 2.04 | 2.83 | 0.974 | 0.538 | 0.612 | 2.52 |
| 0.776 | 0.55 | 0.477 | VSFDEYRFRSV [CFTR_Y515_YF] | 0.972 | 0.519 | 0.591 | 0.515 | 0.699 | 0.567 | 1.22 | 0.489 | 0.574 | 1.14 | 0.6 | 0.862 | 0.614 |
| 0.659 | 0.636 | 0.828 | DNPAKYFILEN [DPP10_Y512_S517N] | 1.03 | 0.59 | 0.456 | 0.557 | 0.617 | 0.531 | 1.2 | 0.459 | 0.392 | 1.41 | 0.509 | 0.935 | 0.495 |
| 0.761 | 0.553 | 0.612 | DMGAQYAAASR [ARID1B_Y483_P488R] | 0.575 | 0.371 | 0.375 | 0.357 | 0.396 | 0.393 | 0.54 | 0.37 | 0.402 | 0.49 | 0.31 | 0.644 | 0.365 |
| 0.891 | 1.12 | 0.542 | GRTPLYMDRQG [AGXT_Y194_G190R] | 0.575 | 0.452 | 0.443 | 0.396 | 0.415 | 0.344 | 0.498 | 0.495 | 0.702 | 0.472 | 0.432 | 0.473 | 0.528 |
| 0.792 | 0.708 | 0.465 | GPQGFYSNKLV [PTPN14_Y506_V505F] | 0.529 | 0.307 | 0.387 | 0.369 | 0.406 | 0.409 | 0.441 | 0.348 | 0.393 | 0.445 | 0.641 | 0.586 | 0.45 |
| 1.05 | 0.637 | 0.583 | DSFWSYCNAVA [SLC20A2_Y436_S434W_YF] | 1.45 | 0.76 | 0.67 | 0.65 | 0.805 | 0.57 | 1.31 | 0.527 | 0.569 | 1.19 | 0.421 | 0.745 | 0.443 |

| Sequence | SH2 binding enrichment [14] | SH2 binding enrichment [15] | SH2 binding enrichment [16] | phosphorylation enrichment [1] | phosphorylation enrichment [2] | phosphorylation enrichment [3] | phosphorylation enrichment [4] | phosphorylation enrichment [5] | phosphorylation enrichment [6] | phosphorylation enrichment [7] | phosphorylation enrichment [8] | phosphorylation enrichment [9] | phosphorylation enrichment [10] | phosphorylation enrichment [11] | phosphorylation enrichment [12] | phosphorylation enrichment [13] |
| --- | --- | --- | --- | --- | --- | --- | --- | --- | --- | --- | --- | --- | --- | --- | --- | --- |
| RIFDFYSARKT [STOX1_Y858_A863T_YF] | 0.977 | 0.907 | 0.517 | 0.715 | 0.467 | 0.553 | 0.519 | 0.496 | 0.311 | 0.833 | 0.485 | 1.37 | 0.417 | 0.595 | 0.491 | 0.624 |
